These results are taken from patent publication US10766960 (dated 2020).

Holding throughout (assay): SPR
On the technique in general: SPR reads the build-up and loss of mass on a sensor chip optically.

The target of test [1] is T1, FcgRIIa R (human, UniProt P12318).
T1 chain: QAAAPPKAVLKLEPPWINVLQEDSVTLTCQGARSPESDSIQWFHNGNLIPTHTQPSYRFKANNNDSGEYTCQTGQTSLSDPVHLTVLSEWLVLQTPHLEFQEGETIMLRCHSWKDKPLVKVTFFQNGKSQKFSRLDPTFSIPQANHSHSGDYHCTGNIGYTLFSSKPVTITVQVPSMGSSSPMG

The target in test [2] is T2, FcgRIIa H (human, UniProt P12318).
T2 chain: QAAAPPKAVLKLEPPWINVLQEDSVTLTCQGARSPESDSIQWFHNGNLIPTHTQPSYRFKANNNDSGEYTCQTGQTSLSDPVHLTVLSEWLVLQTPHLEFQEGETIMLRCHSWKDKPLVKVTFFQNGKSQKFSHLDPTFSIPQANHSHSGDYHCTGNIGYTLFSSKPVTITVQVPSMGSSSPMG

For test [3], the target named is T3, FcgRIIIa V (human, UniProt P08637).
T3 sequence (P08637 17-208 F176V): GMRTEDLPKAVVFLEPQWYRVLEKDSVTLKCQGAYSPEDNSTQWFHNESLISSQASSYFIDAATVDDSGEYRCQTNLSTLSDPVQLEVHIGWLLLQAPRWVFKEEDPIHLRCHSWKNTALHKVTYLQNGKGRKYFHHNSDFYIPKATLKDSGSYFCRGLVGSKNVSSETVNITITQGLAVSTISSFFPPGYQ
The target of test [4] is T3, FcgRIIIa V. The source holds these as a separate data set.
Test [5] addresses T2, FcgRIIa H.
In test [6] the target is T4, FcgRIIb (human, UniProt P31994).
T4 chain: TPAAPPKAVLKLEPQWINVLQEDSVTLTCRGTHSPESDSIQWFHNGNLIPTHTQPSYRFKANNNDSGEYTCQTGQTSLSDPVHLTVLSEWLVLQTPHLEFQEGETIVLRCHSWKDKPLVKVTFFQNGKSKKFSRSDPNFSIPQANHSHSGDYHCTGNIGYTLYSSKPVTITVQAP

Test [7] addresses T2, FcgRIIa H.
The target in test [8] is T3, FcgRIIIa V. The source holds these as a separate data set.
Test [9] deals with T3, FcgRIIIa V. The source holds these as a separate data set.
Test [10] addresses T2, FcgRIIa H.
Test [11] concerns the target T5, FcgRIIIa F (human, UniProt P08637).
Test [12] concerns the target T6, FcgRIa (human, UniProt P12314).
T6 chain: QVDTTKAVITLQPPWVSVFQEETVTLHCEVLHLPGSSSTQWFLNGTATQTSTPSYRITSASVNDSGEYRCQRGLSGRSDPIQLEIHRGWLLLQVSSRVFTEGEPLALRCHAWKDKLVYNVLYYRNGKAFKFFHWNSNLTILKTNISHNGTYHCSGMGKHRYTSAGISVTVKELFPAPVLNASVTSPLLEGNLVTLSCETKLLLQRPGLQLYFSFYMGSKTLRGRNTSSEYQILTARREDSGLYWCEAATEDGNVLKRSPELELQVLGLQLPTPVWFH

Test [13] has as its target T6, FcgRIa.
For test [14], the target named is T5, FcgRIIIa F. This is another data set of the same source.
In test [15] the target is T4, FcgRIIb.
Test [16] addresses T1, FcgRIIa R.
Test [17] concerns the target T5, FcgRIIIa F. The source holds these as a separate data set.
Test [18] deals with T6, FcgRIa.
Test [19] concerns the target T1, FcgRIIa R.
The target in test [20] is T4, FcgRIIb.
In test [21] the target is T1, FcgRIIa R.

Where two headings read alike, the source gives them in different places.

One may read the Kd as the concentration at which binding is half-saturated. A lower Kd goes with higher affinity.

T5 sequence (P08637 17-208): as the sequence (P08637 17-208 F176V) above, with V160F counted along it

B1: IL6R-BP208/IL6R-L (antibody)
chain 1: QVQLQESGPGLVKPSETLSLTCAVSGHSISHDHAWSWVRQPPGEGLEWIGFISYSGITNYNPSLQGRVTISRDNSKNTLYLQMNSLRAEDTAVYYCARSLARTTAMDYWGEGTLVTVSSASTKGPSVFPLAPSSKSTSGGTAALGCLVKDYFPEPVTVSWNSGALTSGVHTFPAVLQSSGLYSLSSVVTVPSSSLGTQTYICNVNHKPSNTKVDKKVEPKSCDKTHTCPPCPAPDLLGDDSVFLFPPKPKDTLMISRTPEVTCVVVDVSDEDGEVKFNWYVDGVEVHNAKTKPREEQYNSTYRVVSVLTVLHQDWLNGKEYKCKVSNKALPRPIEKTISKAKGQPREPQVYTLPPSRDELTKNQVSLTCLVKGFYPSDIAVEWESNGQPENNYKTTPPVLDSDGSFFLYSKLTVDKSRWQQGNVFSCSVMHEALHNHYTQESLSLSP
chain 2: not shown
B1: the Kd is 850 nM with FcgRIIa R [1], 8300 nM with FcgRIIa H [2] and 53000 nM in the test with FcgRIIIa V [3].

B2: H240-Kn120/H240-Hl068/L73-k0 (antibody)
chain 1: QDQLVQSGAEVKKPGASVKVSCKASGFNIKDTYIQWVRQAPGQGLEWMGRIDPLRKQTKYREKFEGRVTITADTSTNTAYMELSSLRSEDTAVYYCVRSGREFDYWGQGTLVTVSSASTKGPSVFPLAPSSKSTSGGTAALGCLVKDYFPEPVTVSWNSGALTSGVHTFPAVLQSSGLYSLSSVVTVPSSSLGTQTYICNVNHKPSNTKVDKKVEPKSCDKTHTCPPCPAPEYYWGPMVFLFPPKPKDTLMISRTPEVTCVVVDVSDEDPEVKFNWYVDGVEVHNAKTKPREEQYNATYRVVSVLTVLHQDWLNGKEYKCKVSNKDLPAPIEKTISKAKGQPREPQVCTLPPSRDELTKNQVSLWCLVKGFYPSDIAVEWESNGQPENNYKTTPPVLDSDGSFFLYSKLTVDKSRWQQGNVFSCSVMHEALHNHYTQKSLSLSP
chain 2: QDQLVQSGAEVKKPGASVKVSCKASGFNIKDTYIQWVRQAPGQGLEWMGRIDPLRKQTKYREKFEGRVTITADTSTNTAYMELSSLRSEDTAVYYCVRSGREFDYWGQGTLVTVSSASTKGPSVFPLAPSSKSTSGGTAALGCLVKDYFPEPVTVSWNSGALTSGVHTFPAVLQSSGLYSLSSVVTVPSSSLGTQTYICNVNHKPSNTKVDKKVEPKSCDKTHTCPPCPAPELLGGPSVFLFPPKPKDTLMISRTPEVTCVVVDVSHEEPEVKFNWYVDGVEVHNAKTKPREEQYNSTYRVVSVLTVLHQDWLNGKEYKCKVSNDALPKPIEETISKAKGQPREPQVYTLPPSRCELTKNQVSLSCAVKGFYPSDIAVEWESNGQPENNYKTTPPVLDSDGSFFLVSKLTVDKSRWQQGNVFSCSVMHEALHNHYTQKSLSLSP
chain 3: DIQMTQSPSSLSASVGDRVTITCRASQDIHKYIAWYQQKPGQAPRLLIQYTSTLQPGVPSRFSGSGSGTDYTFTISSLQPEDIATYYCLQYEQLRTFGGGTKVEIKRTVAAPSVFIFPPSDEQLKSGTASVVCLLNNFYPREAKVQWKVDNALQSGNSQESVTEQDSKDSTYSLSSTLTLSKADYEKHKVYACEVTHQGLSSPVTKSFNRGEC
For the molecule B2, the Kd amounted to 0.36 nM in the test with FcgRIIIa V [4]; 41 nM with FcgRIIa H [5]; 150 nM with FcgRIIb [6]; 44 nM in the test with FcgRIIa H [7]; 0.33 nM with FcgRIIIa V [8]; 0.66 nM with FcgRIIIa V [9]. Moreover, the Kd with FcgRIIa H [10] turned out to be 59 nM; with FcgRIIIa F [11] it was 2.4 nM; with FcgRIa [12], 0.11 nM; with FcgRIa [13] it was 0.37 nM; in the test with FcgRIIIa F [14], 2.4 nM; in the test with FcgRIIb [15] it was 150 nM. The Kd with FcgRIIa R [16] was determined as 20 nM; in the test with FcgRIIIa F [17] it was 2.2 nM; with FcgRIa [18], 0.16 nM; in the test with FcgRIIa R [19], 17 nM; with FcgRIIb [20] it was 150 nM; with FcgRIIa R [21], 23 nM.

B3: H240-Kn037/H240-Hl036/L73-k0 (antibody)
chain 1: QDQLVQSGAEVKKPGASVKVSCKASGFNIKDTYIQWVRQAPGQGLEWMGRIDPLRKQTKYREKFEGRVTITADTSTNTAYMELSSLRSEDTAVYYCVRSGREFDYWGQGTLVTVSSASTKGPSVFPLAPSSKSTSGGTAALGCLVKDYFPEPVTVSWNSGALTSGVHTFPAVLQSSGLYSLSSVVTVPSSSLGTQTYICNVNHKPSNTKVDKKVEPKSCDKTHTCPPCPAPELLAGPDVFLFPPKPKDTLMISRTPEVTCVVVDVSHEDPEVKFNWYVDGVEVHNAKTKPREEQYNSTYRVVSVLTVLHQDWLNGKEYKCKVSNKALPAPEEKTISKAKGQPREPQVCTLPPSRDELTKNQVSLWCLVKGFYPSDIAVEWESNGQPENNYKTTPPVLDSDGSFFLYSKLTVDKSRWQQGNVFSCSVMHEALHNHYTQKSLSLSP
chain 2: QDQLVQSGAEVKKPGASVKVSCKASGFNIKDTYIQWVRQAPGQGLEWMGRIDPLRKQTKYREKFEGRVTITADTSTNTAYMELSSLRSEDTAVYYCVRSGREFDYWGQGTLVTVSSASTKGPSVFPLAPSSKSTSGGTAALGCLVKDYFPEPVTVSWNSGALTSGVHTFPAVLQSSGLYSLSSVVTVPSSSLGTQTYICNVNHKPSNTKVDKKVEPKSCDKTHTCPPCPAPELLAGPDVFLFPPKPKDTLMISRTPEVTCVVVDVSHEDPEVKFNWYVDGVEVHNAKTKPREEQYNSTYRVVSVLTVLHQDWLNGKEYKCKVSNKALPAPEEKTISKAKGQPREPQVYTLPPSRCELTKNQVSLSCAVKGFYPSDIAVEWESNGQPENNYKTTPPVLDSDGSFFLVSKLTVDKSRWQQGNVFSCSVMHEALHNHYTQKSLSLSP
chain 3: DIQMTQSPSSLSASVGDRVTITCRASQDIHKYIAWYQQKPGQAPRLLIQYTSTLQPGVPSRFSGSGSGTDYTFTISSLQPEDIATYYCLQYEQLRTFGGGTKVEIKRTVAAPSVFIFPPSDEQLKSGTASVVCLLNNFYPREAKVQWKVDNALQSGNSQESVTEQDSKDSTYSLSSTLTLSKADYEKHKVYACEVTHQGLSSPVTKSFNRGEC
As to B3, the Kd with FcgRIIIa V [9] was 6.8 nM; in the test with FcgRIIa H [10] it was 46 nM; with FcgRIa [13] it was 0.098 nM; with FcgRIIIa F [14], 21 nM; in the test with FcgRIIa R [19], 29 nM; with FcgRIIb [20], 380 nM.
